Assay results taken from US20070003522A1 (published 2007).

Molecular target: T1, mouse transferrin receptor 1 (TfR1) on TRH3 cells (293T cells stably expressing mouse TfR1) (mouse, UniProt Q62351 1-763)
T1 construct: whole, on cells; also called mTfR1; CD71
Test: FACS on TRH3 cells, anti-TfR1 antibody staining after incubation with pseudovirus

T1 sequence (Q62351 whole entry): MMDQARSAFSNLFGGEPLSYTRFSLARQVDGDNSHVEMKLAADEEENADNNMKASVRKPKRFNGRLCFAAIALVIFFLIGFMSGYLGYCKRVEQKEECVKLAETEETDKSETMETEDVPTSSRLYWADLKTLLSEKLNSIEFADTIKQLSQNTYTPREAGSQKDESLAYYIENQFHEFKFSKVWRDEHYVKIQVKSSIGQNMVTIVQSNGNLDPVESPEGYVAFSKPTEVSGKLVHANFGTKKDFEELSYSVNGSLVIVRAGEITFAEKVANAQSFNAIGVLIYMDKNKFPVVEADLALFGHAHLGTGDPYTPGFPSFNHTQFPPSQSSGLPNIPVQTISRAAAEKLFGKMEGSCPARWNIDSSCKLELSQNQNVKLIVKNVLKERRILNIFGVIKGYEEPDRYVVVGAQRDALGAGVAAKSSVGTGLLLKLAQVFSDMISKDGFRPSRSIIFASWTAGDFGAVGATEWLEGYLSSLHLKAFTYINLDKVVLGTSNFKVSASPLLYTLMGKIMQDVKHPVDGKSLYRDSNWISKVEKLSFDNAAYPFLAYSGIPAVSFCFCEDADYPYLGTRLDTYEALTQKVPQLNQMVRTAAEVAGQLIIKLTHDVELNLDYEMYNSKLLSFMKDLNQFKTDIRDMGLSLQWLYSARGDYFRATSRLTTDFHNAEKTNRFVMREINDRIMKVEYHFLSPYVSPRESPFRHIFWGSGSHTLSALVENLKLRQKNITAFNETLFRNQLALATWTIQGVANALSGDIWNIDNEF

B1: wild-type MMTV (C3H strain) env protein on pseudotyped MoMLV virus (other)
chain: ESYWAYLPKPPILHPVGWGNTDPIRVLTNQTIYLGGSPDFHGFRNMSGNVHFEGKSDTLPICFSFSFSTPTGCFQVDKQVFLSDTPTVDNNKPGGKGDKRRMWELWLTTLGNSGANTKLVPIKKKLPPKYPHCQIAFKKDAFWEGDESAPPRWLPCAFPDQGVSFSPKGALGLLWDFSLPSPSVDQSDQIKSKKDLFGNYTPPVNKEVHRWYEAGWVEPTWFWENSPKDPNDRDFTALVPHTELFRLVAASRYLILKRPGFQEHDMIPTSACVTYPHAILLGLPQLIDIEKRGSTFHISCSSCRLTNCLDSSAYDYAAIIVKRPPYVLLPVDIGDEPWFDDSAIQTFRYATDLIRAKRFVAAIILGISALIAIITSFAVATTALVKEMQTATFVNNLHRNVTLALSEQRIIDLKLEARLNALEEVVLELGQDVANLKTRMSTRCHANYDFICVTPLPYNASESWERTKAHLLGIWNDNEISYNIQELTNLISDMSKQHIDTVDLSGLAQSFANGVKALNPLDWTQYFIFIGVGALLLVIVLMIFPIVFQCLAKSLDQVQSDLNVLLLKKKKGGNAAPAAEMVELPRVSYT
notes: On virions it is processed into SU (gp52) and TM (gp36); also called wild type pseudovirus; wt
Does B1 bind?
Result: binds
